Data reported in patent US5792629A, “Isolated DNA encoding novel protease inhibitory polypeptide” (Mochida Pharmaceutical Co., Ltd., priority 1990, dated 1998).

What was measured:
kallikrein = settings: literature report; cited from earlier work
plasmin = plasmin (Homo sapiens, UniProt P00747); settings: literature report; cited from earlier work
trypsin = settings: literature report; cited from earlier work
Human trypsin = target: T1, Human trypsin (Homo sapiens, UniProt P07477); assay: Human trypsin-inhibiting activity, substrate S-2444; format: biochemical; settings: purified products, concentration as U/ml bovine trypsin-inhibiting activity based on UTI
T1 construct: purchased Calbiochem
Procedure: The purified sample obtained in Example 1-(5) was dissolved in 100 μl of distilled water. Concentration of this solution was determined based on its bovine trypsin-inhibiting activity using the aforementioned UTI as a standard. The solution was then diluted to various concentration levels with 0.1% BSA/0.2M triethanolamine-HCl buffer (pH 7.8) for the activity measurement. The aforementioned UTI was also diluted in the same manner.
Using the aforementioned synthetic compound S-2444 as a substrate, human trypsin-inhibiting activities of the diluted test samples and the positive control were measured in accordance with the method of Kassell (Kassell B., Methods in Enzymol., vol 19, pp.84-852, 1970) as follows.
Human trypsin (Calbiochem) was dissolved in 0.001M HCl to a concentration of 1,000 SU/ml and the solution was further diluted with 0.1% BSA/0.2M triethanolamine-HCl buffer (pH 7.8) to prepare 1.25 SU/ml of trypsin solution. 2 mM solution of S-2444 was prepared by dissolving it in distilled water.
Next, 100 μl of the test sample or positive control was mixed with 100 μl of the trypsin solution. After incubation at 37° C. for 10 minutes, 50 μl of the S-2444 solution was added to the mixture to start the reaction. The reaction was carried out at 37° C. for 20 minutes and then stopped by adding 50 μl of 50% acetic acid solution to the reaction mixture. Thereafter, absorbance at 405 nm was measured using a spectrophotometer.
In this instance, in order to eliminate absorbance of various solutions in the reaction mixture, a blank solution was prepared by mixing 100 μl of the trypsin solution with 50 μl of 50% acetic acid and then with 100 μl of each test sample or the positive control and with 50 μl of the S-2444 solution.
In this figure, human trypsin remaining activity was expressed by percentage based on the absorbance of a control reaction mixture in which 100 μl of 0.1% BSA/0.2M triethanolamine-HCl buffer (pH 7.8) was used instead of the test sample or the positive control.

FXa = FXa (Homo sapiens, UniProt P00742); assay: Human FXa-inhibiting activity, substrate S-2222; format: biochemical; set-up: purchased American Diagnostica Inc; settings: purified products, FIG. 25 and FIG. 26
Procedure: The purified sample obtained in Example 1-(5) was dissolved in 100 μl of distilled water. Concentration of this solution was determined based on its bovine trypsin-inhibiting activity using the aforementioned UTI as a standard. The solution was then diluted to various concentration levels with 0.1% BSA/150 mM NaCl/5 mM CaCl2 /50 mM Tris-HCl buffer (pH 8.3) for use in the activity measurement. The UTI was also diluted in the same manner. Using a synthetic compound S-2222 (Daiichi Pure Chemicals Co., Ltd.) as a substrate, human FXa-inhibiting activities of the diluted test samples and the positive control were measured in accordance with the method of Ohno et al. (Ohno,H. et al., Thromb. Res., vol.19, pp.579-588, 1980) as follows.
Human FXa (American Diagnostica Inc.) was dissolved in distilled water to a concentration of 10 PEU/ml and the solution was further diluted with 0.1% BSA/150 mM NaCl/5 mM CaCl2 /50 mM Tris-HCl buffer (pH 8.3) to prepare 0.1 PEU/ml of FXa solution. 4 mM solution of S-2222 was prepared by dissolving it in distilled water and the solution was further diluted with 0.1% BSA/150 mM NaCl/5 MM CaCl2 /50 mM Tris-HCl buffer (pH 8.3) to obtain 2 mM solution of S-2222.
Next, 25 μl of the test sample or positive control was mixed with 100 μl of 0.1% BSA/150 mM NaCl/5 mM CaCl2 /50 mM Tris-HCl buffer (pH 8.3) and 25 μl of the FXa solution. After incubation at 37° C. for 10 minutes, 100 μl of the S-2222 solution was added to the mixture to start the reaction. The reaction was carried out at 37° C. for 30 minutes and then stopped by adding 50 μl of 50% acetic acid solution to the reaction mixture. Thereafter, absorbance at 405 nm was measured using a spectrophotometer.
In this instance, in order to eliminate absorbance of various solutions in the reaction mixture, a blank solution was prepared by mixing 25 μl of the FXa solution with 50 μl of 50% acetic acid and then with 25 μl of each test sample or the positive control, 100 μl of 0.1% BSA/150 mM NaCl/5 mM CaCl2 /50 mM Tris-HCl buffer (pH 8.3) and with 100 μl of the S-2222 solution.
In this figure, human FXa remaining activity was expressed by percentage based on the absorbance of a control reaction mixture in which 25 μl of 0.1% BSA/150 mM NaCl/5 mM CaCl2 /50 mM Tris-HCl buffer (pH 8.3) was used instead of the test sample or the positive control.

Sequence of FXa (P00742 235-488 limits assumed): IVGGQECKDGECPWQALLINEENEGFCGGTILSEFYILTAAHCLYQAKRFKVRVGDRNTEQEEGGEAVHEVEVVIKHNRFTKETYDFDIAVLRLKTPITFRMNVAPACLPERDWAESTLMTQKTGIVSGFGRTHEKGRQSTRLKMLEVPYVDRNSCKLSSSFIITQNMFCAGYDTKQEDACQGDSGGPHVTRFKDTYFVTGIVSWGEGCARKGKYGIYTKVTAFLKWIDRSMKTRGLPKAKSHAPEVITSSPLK
Sequence of FXa (P00742 41-179 partner limits assumed): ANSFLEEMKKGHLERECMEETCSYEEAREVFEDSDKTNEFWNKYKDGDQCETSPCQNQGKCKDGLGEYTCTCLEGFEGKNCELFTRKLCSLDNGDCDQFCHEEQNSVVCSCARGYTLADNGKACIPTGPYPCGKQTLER
Sequence of plasmin (P00747 581-810 limits assumed, species assumed): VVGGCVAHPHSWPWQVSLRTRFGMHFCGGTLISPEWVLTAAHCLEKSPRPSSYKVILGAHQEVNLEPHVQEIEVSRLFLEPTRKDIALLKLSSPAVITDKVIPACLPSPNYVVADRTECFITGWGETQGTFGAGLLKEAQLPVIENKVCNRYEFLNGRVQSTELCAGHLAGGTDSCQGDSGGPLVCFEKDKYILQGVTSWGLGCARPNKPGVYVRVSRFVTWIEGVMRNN
Sequence of plasmin (P00747 97-580 partner limits assumed, species assumed): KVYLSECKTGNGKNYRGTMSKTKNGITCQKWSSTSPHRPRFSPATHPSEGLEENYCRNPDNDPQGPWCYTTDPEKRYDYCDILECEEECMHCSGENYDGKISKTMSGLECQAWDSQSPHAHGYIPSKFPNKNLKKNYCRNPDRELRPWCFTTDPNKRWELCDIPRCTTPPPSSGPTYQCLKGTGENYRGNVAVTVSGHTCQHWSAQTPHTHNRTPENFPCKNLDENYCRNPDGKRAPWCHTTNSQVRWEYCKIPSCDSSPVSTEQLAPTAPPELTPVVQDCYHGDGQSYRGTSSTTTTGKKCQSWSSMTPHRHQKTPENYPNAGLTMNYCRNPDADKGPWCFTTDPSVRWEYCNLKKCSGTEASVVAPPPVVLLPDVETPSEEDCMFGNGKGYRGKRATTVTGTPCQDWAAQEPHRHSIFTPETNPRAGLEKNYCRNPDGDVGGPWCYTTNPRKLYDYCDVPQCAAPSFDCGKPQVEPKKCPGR

Row | human trypsin-inhibiting activity compared with polypeptides TN70 and TL66 (Human trypsin) | human FXa-inhibiting activity relative to polypeptide TN70 (FXa) | Molecule | inhibition of kallikrein (kallikrein) | inhibition of plasmin (plasmin) | inhibition of trypsin (trypsin)
1 |  |  | aprotinin [reference compound] | inhibits | inhibits | inhibits
2 | almost the same | about 7 times | Y46E: polypeptide defined by the amino acid sequence of formula 5, purified from culture supernatant of E. coli JE5505 (pM575B) (protein) TVAACNLPIVRGPCRAFIQLWAFDAVKGKCVLFPYGGCQGNGNKFESEKECREYCGVPGDGDEELLRFSN |  |  | 
3 | almost the same | about 5 times | Q19K: polypeptide defined by the amino acid sequence of formula 6, purified from culture supernatant of E. coli JE5505 (pM576) (protein) DDAACNLPIVRGPCRAFIKLWAFDAVKGKCVLFPYGGCQGNGNKFYSEKECREYCGVPGDGDEELLRFSN |  |  | 
